According to patent publication US20220372120A1 (GEMINI THERAPEUTICS SUB, published 2022):
Where a chain is given by its changes, count along the chain named. Several values for one entry are separate records, joined by “and”; a condition that tells them apart may be missing. Equal entries are not always repeated.

B1: FHR-1.3B4 (antibody, V domains shown)
VH: QVQLRQSGPGLVQPSQSLSITCTVSGFSLTNYGVYWVRQSPGKGLEWLGVIWSGGTTDYSAAFISRLSISKDNSKSQVFFKMNSLQADDTAIYYCARNFGNYAMDYWGQGTSVTVSS
VL: QIVLSQSPTILSASPGEKVTMTCRASSSVTYMHWYQQKPGSSPKPWIYATSNLASGVPARFSGSGSGTSYSLTISRVEAEDAATYYCQQRSSSNPLTFGAGTKLELK
notes: Mouse monoclonal antibody raised in BALB/c mice against recombinant human FHR-1 (hybridoma); kappa light chain implied by capture on rat anti-mouse kappa RM19; also called anti-FHR-1.3B4; anti-FHR-1 3B4
B2: Antibody 1 (antibody, V domains shown)
VH: QVQLQESGPGLVKPSQTLSLTCTVSGFSLTNYGVYWIRQHPGKGLEWIGVVWSGGTTEFNPSLKSRVTISKDTSKNQVSLKLSSVTAADTAVYYCARNFGNYAMDYWGQGTSVTVSS
VL: DIQLTQSPSSLSASVGDRVTITCKASSSVTYLHWYQQKPGKAPKPLIYATSNLASGVPSRFSGSGSGTDFTLTISSLQPEDFATYYCQHRSSSNPLTFGAGTKLELK
B3: Antibody 4 (antibody, V domains shown)
VH: B2 VH with V51I, F59Y, L63M, Y106F
VL: B2 VL with K24R, S27T, L32M, T50S
B4: Antibody 3 (antibody, V domains shown)
VH: B2 VH
VL: B2 VL with K24R, S27T, L32M, T50S
B5: Antibody 2 (antibody, V domains shown)
VH: B2 VH with V51I, F59Y, L63M, Y106F
VL: B2 VL

Key:
[1] = molecular target: purified C3b (Complement Technologies) (UniProt P01024); experiment: SPR (Biacore T200, 37 C), C3b amine-coupled to chip, pdFH injected alone, equilibrium analysis
Human purified factor H [2] = molecular target: T1, Human purified factor H (human, UniProt P08603 19-1231); experiment: cell-based or functional assay
T1 sequence (P08603 19-1231): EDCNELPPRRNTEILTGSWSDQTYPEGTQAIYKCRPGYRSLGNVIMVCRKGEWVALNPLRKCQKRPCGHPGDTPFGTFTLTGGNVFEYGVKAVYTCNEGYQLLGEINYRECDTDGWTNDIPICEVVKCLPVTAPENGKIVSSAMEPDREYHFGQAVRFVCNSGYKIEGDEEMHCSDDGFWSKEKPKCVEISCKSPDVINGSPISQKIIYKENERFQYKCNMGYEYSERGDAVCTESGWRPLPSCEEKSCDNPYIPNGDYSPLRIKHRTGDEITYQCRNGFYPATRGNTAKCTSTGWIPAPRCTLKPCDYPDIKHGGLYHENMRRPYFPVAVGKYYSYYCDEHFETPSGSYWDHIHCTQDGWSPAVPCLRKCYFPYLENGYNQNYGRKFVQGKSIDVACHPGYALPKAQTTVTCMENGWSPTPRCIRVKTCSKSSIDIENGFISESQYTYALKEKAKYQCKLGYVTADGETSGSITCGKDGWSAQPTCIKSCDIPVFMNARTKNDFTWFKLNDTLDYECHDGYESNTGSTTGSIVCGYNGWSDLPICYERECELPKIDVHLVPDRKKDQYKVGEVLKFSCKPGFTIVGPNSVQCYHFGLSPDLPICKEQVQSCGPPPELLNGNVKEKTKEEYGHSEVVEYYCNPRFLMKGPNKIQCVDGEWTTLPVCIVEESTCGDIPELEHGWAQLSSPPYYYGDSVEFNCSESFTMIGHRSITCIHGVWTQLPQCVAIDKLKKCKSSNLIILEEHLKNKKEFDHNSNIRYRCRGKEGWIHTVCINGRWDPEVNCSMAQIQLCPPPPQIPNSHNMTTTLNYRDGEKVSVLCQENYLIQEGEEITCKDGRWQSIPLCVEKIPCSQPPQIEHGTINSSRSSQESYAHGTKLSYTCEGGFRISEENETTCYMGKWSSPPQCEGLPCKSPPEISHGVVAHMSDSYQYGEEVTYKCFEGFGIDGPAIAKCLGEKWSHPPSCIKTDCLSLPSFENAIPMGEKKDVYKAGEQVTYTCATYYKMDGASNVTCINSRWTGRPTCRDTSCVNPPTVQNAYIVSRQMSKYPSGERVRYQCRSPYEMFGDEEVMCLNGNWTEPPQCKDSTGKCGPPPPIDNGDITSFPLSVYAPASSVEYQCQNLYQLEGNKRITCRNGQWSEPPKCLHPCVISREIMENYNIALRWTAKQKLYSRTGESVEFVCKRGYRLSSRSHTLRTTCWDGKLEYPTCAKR

Human purified factor H [3] = molecular target: T1, Human purified factor H; experiment: cell-based or functional assay; remark: listed apart in the source
Human purified factor H [4] = molecular target: T1, Human purified factor H; experiment: SPR (BiaCore T200), antibody captured on Protein A or Protein G chip, full length FH flowed over
Method: To determine binding affinity of Antibodies 1-4, surface plasmon resonance (SPR) experiments were performed using a BiaCore T200 (GE Healthcare) and CMS sensor chips (GE Healthcare) in accordance with the manufacturer's instructions. Briefly, Antibodies […] or anti-FHR-1.3B4 were captured onto a Protein A or Protein G coupled chip and full length FH was flown over the captured moAB at decreasing concentrations.

Human purified factor H [5] = molecular target: T1, Human purified factor H; experiment: cell-based or functional assay; remark: listed apart in the source
Human purified factor H [6] = molecular target: T1, Human purified factor H; experiment: cell-based or functional assay; remark: listed apart in the source

| Molecule | Kd [1] | IC50 of inhibition of C3b deposition on LPS, 10% normal human serum (Human purified factor H [2]) | IC50 of inhibition of SRBC hemolysis, 10% human serum with anti-FH.09 (Human purified factor H [3]) | Kd (Human purified factor H [4]) | koff (Human purified factor H [4]) | kon (Human purified factor H [4]) | IC50 of inhibition of C3b deposition on LPS, Replicate 1 (Human purified factor H [5]) | IC50 of inhibition of C3b deposition on LPS, Replicate 2 (Human purified factor H [5]) | IC50 of inhibition of SRBC hemolysis, first replicate (Human purified factor H [6]) | IC50 of inhibition of SRBC hemolysis, second replicate (Human purified factor H [6]) |
| --- | --- | --- | --- | --- | --- | --- | --- | --- | --- | --- |
| Human purified factor H (from UniProt P08603 19-1231) | 1300 nM | – | – | – | – | – | – | – | – | – |
| B1 | – | 38 nM and 5.7 µg/ml | 11.4 ug/ml and 76 nM | 0.91 nM | 5.32e-05 s⁻¹ | 59500 M⁻¹ s⁻¹ | – | – | – | – |
| B2 | – | 2.26 µg/ml and 15.1 nM | 10.6 ug/ml and 70.7 nM | 0.5 nM | 2.67e-05 s⁻¹ | 53800 M⁻¹ s⁻¹ | 3.5 µg/ml and 23.4 nM | 2.26 µg/ml and 15.1 nM | 10.7 µg/ml and 71.3 nM | 10.9 µg/ml and 72.7 nM |
| B3 | – | 3.51 µg/ml and 23.4 nM | 11.5 ug/ml and 76.7 nM | 0.58 nM | 3.14e-05 s⁻¹ | 55300 M⁻¹ s⁻¹ | 4.34 µg/ml and 28.9 nM | 3.51 µg/ml and 23.4 nM | 11.5 µg/ml and 76.5 nM | 11.8 µg/ml and 78.5 nM |
| B4 | – | 3.47 µg/ml and 23.1 nM | 9.4 ug/ml and 62.7 nM | 0.85 nM | 4.07e-05 s⁻¹ | 48500 M⁻¹ s⁻¹ | 4.14 µg/ml and 27.6 nM | 3.47 µg/ml and 23.1 nM | 11.1 µg/ml and 74 nM | 9.1 µg/ml and 60.7 nM |
| B5 | – | 2.82 µg/ml and 18.8 nM | 10.1 ug/ml and 67.3 nM | 0.52 nM | 3.06e-05 s⁻¹ | 58500 M⁻¹ s⁻¹ | 3.68 µg/ml and 24.5 nM | 2.82 µg/ml and 18.8 nM | 11.4 µg/ml and 76.3 nM | 10.4 µg/ml and 69.3 nM |
